# Measured values from FireProtDB (doi:10.1021/bi00015a036).
# B1: Barstar, P11540 (parent)
# chain: MKKAVINGEQIRSISDLHQTLKKELALPEYYGENLDALWDCLTGWVEYPLVLEWRQFEQSKQLTENGAESVLQVFREAKAEGCDITIILS
# Variants of: B1
# Conditions: Bacillus amyloliquefaciens; pH 7; Thermal; DSC; PIPES 50 mM; reversible: yes (~80%); structure 1BTA; whole UniProt chain shown
Variant,Tm [°C],unfolding enthalpy (calorimetric) [kcal/mol]
MKKAVINGEQIRSISDLHQTLKKELALPEYYGENLDALWDALTGWVEYPLVLEWRQFEQSKQLTENGAESVLQVFREAKAEGADITIILS,74,63.4

# Same assay, conditions: Bacillus amyloliquefaciens; pH 10; Thermal; DSC; CAPS 50 mM; reversible: yes (~80%); structure 1BTA; whole UniProt chain shown
Variant,Tm [°C],unfolding enthalpy (calorimetric) [kcal/mol]
MKKAVINGEQIRSISDLHQTLKKELALPEYYGENLDALWDALTGWVEYPLVLEWRQFEQSKQLTENGAESVLQVFREAKAEGADITIILS,68.6,58.6

# Same assay, conditions: Bacillus amyloliquefaciens; pH 10.3; Thermal; DSC; CAPS 50 mM; reversible: yes (~80%); structure 1BTA; whole UniProt chain shown
Variant,Tm [°C],unfolding enthalpy (calorimetric) [kcal/mol]
MKKAVINGEQIRSISDLHQTLKKELALPEYYGENLDALWDALTGWVEYPLVLEWRQFEQSKQLTENGAESVLQVFREAKAEGADITIILS,67,57.4

# Same assay, conditions: Bacillus amyloliquefaciens; pH 10.5; Thermal; DSC; CAPS 50 mM; reversible: yes (~80%); structure 1BTA; whole UniProt chain shown
Variant,Tm [°C],unfolding enthalpy (calorimetric) [kcal/mol]
MKKAVINGEQIRSISDLHQTLKKELALPEYYGENLDALWDALTGWVEYPLVLEWRQFEQSKQLTENGAESVLQVFREAKAEGADITIILS,65.7,56.2
